Values joined by “and” are separate entries in the source; they are usually repeats but may differ in a detail not shown here. Identical values can stand only once. Blank lines part the entries; values can stand above or below the binder they belong to.
Legend:
[1] = target: mouse KLB and mouse FGFR1c co-expressed on HEK293/mKLB/mFGFR1c/SRE-Luc cells (mouse); assay: cell-based or functional assay
[2] = target: T1, extracellular domain of human KLB expressed with C-terminal HA and hexahistidine tags (human, UniProt Q86Z14 1-996); assay: SPR, mAb captured, 37 C
T1 construct: also called hKLB-HA-6His; hKLB-HA-6his
T1 sequence: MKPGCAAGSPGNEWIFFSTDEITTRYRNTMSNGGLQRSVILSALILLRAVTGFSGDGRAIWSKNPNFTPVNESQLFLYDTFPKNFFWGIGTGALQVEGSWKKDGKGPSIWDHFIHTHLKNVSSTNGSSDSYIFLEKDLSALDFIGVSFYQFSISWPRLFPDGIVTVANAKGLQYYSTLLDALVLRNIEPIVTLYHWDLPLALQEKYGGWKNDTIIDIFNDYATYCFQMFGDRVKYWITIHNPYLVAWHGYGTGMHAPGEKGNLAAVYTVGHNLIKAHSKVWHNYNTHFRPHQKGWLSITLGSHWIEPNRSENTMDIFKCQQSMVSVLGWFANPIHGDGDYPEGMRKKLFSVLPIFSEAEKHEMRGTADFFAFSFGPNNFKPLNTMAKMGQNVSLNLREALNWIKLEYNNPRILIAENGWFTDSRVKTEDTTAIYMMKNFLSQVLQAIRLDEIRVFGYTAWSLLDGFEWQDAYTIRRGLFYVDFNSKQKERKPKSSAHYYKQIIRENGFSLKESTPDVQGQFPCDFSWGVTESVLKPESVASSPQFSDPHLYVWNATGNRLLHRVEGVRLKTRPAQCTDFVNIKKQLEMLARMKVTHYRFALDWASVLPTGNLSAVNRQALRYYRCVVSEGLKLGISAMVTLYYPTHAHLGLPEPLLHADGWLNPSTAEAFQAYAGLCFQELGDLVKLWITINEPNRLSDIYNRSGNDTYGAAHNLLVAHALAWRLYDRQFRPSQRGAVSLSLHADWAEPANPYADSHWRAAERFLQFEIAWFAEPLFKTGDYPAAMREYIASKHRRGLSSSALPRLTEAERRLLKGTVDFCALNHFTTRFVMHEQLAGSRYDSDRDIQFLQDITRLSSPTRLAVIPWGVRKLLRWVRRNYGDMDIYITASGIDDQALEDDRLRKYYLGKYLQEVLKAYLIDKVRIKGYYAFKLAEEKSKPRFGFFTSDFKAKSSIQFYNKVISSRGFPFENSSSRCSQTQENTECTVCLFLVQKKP
Protocol: (§1) Equilibrium dissociation constants (KD values) for human KLB or human FGFR1c binding to purified anti-KLB/FGFR1c monoclonal antibodies were determined using a real-time surface plasmon resonance biosensor using a Biacore T-200 or 4000 instrument. The Biacore sensor surface was derivatized by amine coupling with either a polyclonal rabbit anti-mouse antibody (GE, # BR-1008-38) or with a monoclonal mouse anti-human Fc antibody (GE, # BR-1008-39) to capture anti-KLB/FGFR1c monoclonal antibodies expressed with either a mouse Fc or a human Fc, respectively. All Biacore binding studies were performed in a buffer composed of 0.01M HEPES pH 7.4, 0.15M NaCl, 3mM EDTA, 0.05% v/v Surfactant P20 (HBST running buffer). […] Association of hKLB-HA-6His or hFGFR1c-V5-6His to the captured monoclonal antibody was monitored for 3.5 to 4 minutes and the dissociation of hKLB-HA-6His or hFGFR1c-V5-6His in HBST running buffer was monitored for 8-12 minutes. All the binding kinetics experiments were performed at 25° C. or 37° C. Kinetic association (kₐ) and dissociation (kd) rate constants were determined by fitting the real-time sensorgrams to a 1:1 binding model using Scrubber 2.0c curve fitting software. Binding dissociation equilibrium constants (KD) and dissociative half-lives (t½) were calculated from the kinetic rate constants as: […]

[3] = target: T2, extracellular domain of human FGFR1c expressed with C-terminal V5 and hexahistidine tags (human, UniProt P11362 22-376); assay: SPR, mAb captured, 37 C
T2 construct: also called hFGFR1c-V5-6His
T2 sequence: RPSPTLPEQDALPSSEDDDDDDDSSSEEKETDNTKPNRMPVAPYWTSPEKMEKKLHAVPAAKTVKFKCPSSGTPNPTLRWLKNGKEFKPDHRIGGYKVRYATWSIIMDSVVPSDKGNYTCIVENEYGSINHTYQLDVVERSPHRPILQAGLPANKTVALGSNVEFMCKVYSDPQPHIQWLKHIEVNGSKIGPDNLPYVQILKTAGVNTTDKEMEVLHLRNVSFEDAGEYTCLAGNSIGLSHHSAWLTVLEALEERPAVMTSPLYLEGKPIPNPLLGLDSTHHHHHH
Protocol: as §1

[4] = target: human KLB and human FGFR1c co-expressed on HEK293/hKLB/hFGFR1c/SRE-luc cells (human, UniProt Q86Z14 1-1044; P11362 22-822); assay: cell-based or functional assay
[5] = target: T1, extracellular domain of human KLB …; assay: SPR, mAb captured, 25 C
Protocol: as §1

[6] = target: T2, extracellular domain of human FGFR1c …; assay: SPR, mAb captured, 25 C
Protocol: as §1

[7] = target: cell-surface human FGFR1c (amino acids 1-731 of NP_075594) with cell-surface human KLB on … (human, UniProt P11362 22-822); assay: cell-based or functional assay
Sequence of cell-surface human FGFR1c (amino acids 1-731 of NP_075594) with cell-surface human KLB on … (P11362 22-822): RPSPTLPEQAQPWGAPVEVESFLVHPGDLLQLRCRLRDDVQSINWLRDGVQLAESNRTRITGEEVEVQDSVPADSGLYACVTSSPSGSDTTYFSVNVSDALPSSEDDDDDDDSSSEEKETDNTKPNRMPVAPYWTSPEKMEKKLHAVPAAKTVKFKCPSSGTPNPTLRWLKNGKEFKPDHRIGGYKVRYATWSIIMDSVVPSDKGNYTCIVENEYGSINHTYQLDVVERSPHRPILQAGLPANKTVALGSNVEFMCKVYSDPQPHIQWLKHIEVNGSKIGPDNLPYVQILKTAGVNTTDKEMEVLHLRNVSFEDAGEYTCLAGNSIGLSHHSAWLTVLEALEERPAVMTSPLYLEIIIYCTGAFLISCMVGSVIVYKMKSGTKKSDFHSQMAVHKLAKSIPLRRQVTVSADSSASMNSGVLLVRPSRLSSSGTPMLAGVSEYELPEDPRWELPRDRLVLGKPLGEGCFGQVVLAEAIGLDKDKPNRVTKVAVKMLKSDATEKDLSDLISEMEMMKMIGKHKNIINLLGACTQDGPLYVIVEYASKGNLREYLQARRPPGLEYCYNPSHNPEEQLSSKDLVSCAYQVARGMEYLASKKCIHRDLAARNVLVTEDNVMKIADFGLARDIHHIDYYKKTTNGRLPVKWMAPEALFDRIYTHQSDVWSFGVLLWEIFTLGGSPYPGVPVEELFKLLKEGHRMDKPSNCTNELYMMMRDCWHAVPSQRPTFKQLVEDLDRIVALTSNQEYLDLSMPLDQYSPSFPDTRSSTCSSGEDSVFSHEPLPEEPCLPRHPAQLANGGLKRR

[8] = target: T3, full-length human FGFR1c on HEK293/hFGFR1c/SRE-luc cells (human, UniProt P11362 22-822); assay: FACS on stable HEK293 cells
T3 construct: amino acids 1-733 of NP_075593
T3 sequence (P11362 other isoform, or with tags, fused parts or gaps limits assumed): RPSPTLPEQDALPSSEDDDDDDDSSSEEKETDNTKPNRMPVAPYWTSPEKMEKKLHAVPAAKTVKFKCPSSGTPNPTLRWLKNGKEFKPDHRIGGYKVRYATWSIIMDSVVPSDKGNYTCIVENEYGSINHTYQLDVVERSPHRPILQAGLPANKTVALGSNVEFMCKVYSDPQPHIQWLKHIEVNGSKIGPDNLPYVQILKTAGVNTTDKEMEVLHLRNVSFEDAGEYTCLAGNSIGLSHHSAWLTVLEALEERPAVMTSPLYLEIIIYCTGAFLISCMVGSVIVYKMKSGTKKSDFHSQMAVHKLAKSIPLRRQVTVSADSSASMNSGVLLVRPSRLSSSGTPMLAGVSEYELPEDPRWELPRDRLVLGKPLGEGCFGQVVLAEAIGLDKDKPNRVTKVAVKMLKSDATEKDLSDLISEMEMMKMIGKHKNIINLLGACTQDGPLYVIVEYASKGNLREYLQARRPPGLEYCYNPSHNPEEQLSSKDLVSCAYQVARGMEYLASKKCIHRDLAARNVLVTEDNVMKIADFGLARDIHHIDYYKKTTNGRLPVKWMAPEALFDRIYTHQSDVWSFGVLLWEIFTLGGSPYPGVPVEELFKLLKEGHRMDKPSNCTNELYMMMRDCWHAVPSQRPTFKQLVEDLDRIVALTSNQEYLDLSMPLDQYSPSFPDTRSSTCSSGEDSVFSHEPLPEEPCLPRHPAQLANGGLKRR
Protocol: To determine binding specificity of the monoclonal anti-KLB/FGFR1c antibodies, the antibodies were tested in a fluorescence-activated cell sorting (FACS) binding assay to cell lines expressing human FGFR1c, human KLB, and both human FGFR1c and human KLB. HEK293 cell lines were generated that stably express full-length human FGFR1c (hFGFR1c; SEQ ID NO:433) or full-length human KLB (hKLB; SEQ ID NO:434) or both human FGFR1c and human KLB, along with a luciferase reporter [SRE (serum response element)-luciferase, SA Bioscience, #CLS-010L]. The resulting cell lines, referred to as HEK293/hFGFR1c/SRE-luc, HEK293/hKLB/SRE-luc, and HEK293/hKLB/hFGFR1c/SRE-luc, respectively, were maintained in DMEM supplemented with 10% FBS, NEAA, penicillin/streptomycin, 1 μg/mL puromycin and […] hygromycin B, 1 μg/mL puromycin and 500 μg/mL G418, or all three antibiotics.
For the FACS analysis, HEK293 parental, HEK293/hFGFR1c/SRE-luc, HEK293/hKLB/SRE-luc, and HEK293/hKLB/hFGFR1c/SRE-luc cells were dissociated and plated onto 96-well v-bottom plates at 5 x 10⁵ cells/well in PBS containing 1% FBS. […] Cells were filtered and subsequently analyzed on a Hypercyte Flow Cytometer (Intellicyt Corp.). Unstained and secondary antibody alone controls were also tested for binding to all cell lines. The results were analyzed using FlowJo version 9.52 software and geometric mean (Geom. Mean) of fluorescence for viable cells was determined. Geom. mean of fluorescence for each antibody was then normalized to Geom. mean of unstained cells to obtain relative binding of antibody (binding ratios) per each cell type.

[9] = target: M. fascicularis KLB and human FGFR1c co-expressed on HEK293/MfKLB/hFGFR1c/SRE-Luc cells (M. fascicularis; human, UniProt A0A2K5WB58 1-1044); assay: cell-based or functional assay
Sequence of M. fascicularis KLB and human FGFR1c co-expressed on HEK293/MfKLB/hFGFR1c/SRE-Luc cells (chain, as listed by the source, chain 1 of 2): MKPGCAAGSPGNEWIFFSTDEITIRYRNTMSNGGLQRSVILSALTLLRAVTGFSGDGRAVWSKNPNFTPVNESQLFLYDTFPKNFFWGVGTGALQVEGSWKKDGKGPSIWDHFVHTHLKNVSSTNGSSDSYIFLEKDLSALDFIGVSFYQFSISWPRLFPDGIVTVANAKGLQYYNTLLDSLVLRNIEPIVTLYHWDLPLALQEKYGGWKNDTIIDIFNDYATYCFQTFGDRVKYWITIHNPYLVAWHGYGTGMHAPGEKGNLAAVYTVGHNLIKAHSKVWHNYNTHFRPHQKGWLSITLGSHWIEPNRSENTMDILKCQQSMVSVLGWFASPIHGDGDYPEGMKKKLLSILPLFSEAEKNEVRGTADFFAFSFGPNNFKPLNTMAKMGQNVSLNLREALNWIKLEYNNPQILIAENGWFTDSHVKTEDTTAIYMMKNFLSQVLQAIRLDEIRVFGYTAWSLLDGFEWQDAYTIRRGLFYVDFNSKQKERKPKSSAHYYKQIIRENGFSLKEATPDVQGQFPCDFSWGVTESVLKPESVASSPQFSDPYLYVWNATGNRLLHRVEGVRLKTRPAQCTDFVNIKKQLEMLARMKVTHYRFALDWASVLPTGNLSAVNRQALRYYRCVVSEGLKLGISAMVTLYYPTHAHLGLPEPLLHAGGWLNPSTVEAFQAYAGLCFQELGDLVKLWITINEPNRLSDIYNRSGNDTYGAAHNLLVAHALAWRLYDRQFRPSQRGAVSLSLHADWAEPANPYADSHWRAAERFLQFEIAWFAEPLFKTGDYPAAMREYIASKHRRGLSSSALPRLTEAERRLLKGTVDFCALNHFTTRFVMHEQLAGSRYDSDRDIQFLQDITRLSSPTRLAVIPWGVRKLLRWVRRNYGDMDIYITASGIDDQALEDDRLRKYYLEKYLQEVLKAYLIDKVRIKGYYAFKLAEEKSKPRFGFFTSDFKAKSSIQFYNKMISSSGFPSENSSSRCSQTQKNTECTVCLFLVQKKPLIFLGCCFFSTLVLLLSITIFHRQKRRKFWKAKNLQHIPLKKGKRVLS
Sequence of M. fascicularis KLB and human FGFR1c co-expressed on HEK293/MfKLB/hFGFR1c/SRE-Luc cells (chain, as listed by the source, chain 2 of 2): as the sequence (P11362 other isoform, or with tags, fused parts or gaps limits assumed) above

B3: H2bM8096N (antibody, V domains shown)
VH: QVQLVESGGGVVQPGRSLRLSCAASGFTFSSYGLHWVRQAPGKGLEWVAVIWHDGSHKYYADSVKGRFTISRDNSKNTVYLQMNSLRAEDTAVYYCARDGIPVAEDYYLYGMDVWGQGTTVTVSS
VL: EIVLTQSPGTLSLSPGERATLSCRASQSVDSSYLAWYHQKPGQAPRLLIYGASSRATGIPDRFSGSGSGTDFTLTISRLEPEDFAVYYCQQYGSSRTFGQGTKVEIK
notes: mouse IgG2 Fc (H2bM prefix)
- 180 nM hFGFR1c-V5-6His Bind (RU) [3]: -1.2 RU
- 180 nM hFGFR1c-V5-6His Bind (RU) [6]: -0.7 RU

B4: H2bM8833N (antibody, V domains shown)
VH: QVQLVESGGGVVQPGRSLRLSCAASGFTFSRYGIHWVRQAPGKGLEWVAVIWYDGSNKYYADSLKGRFTISRDNSKNTLYLQMNSLRAEDTAVYYCARDQGNYIDYWGQGTLVTVSS
VL: AIQMTQSPSSLSASVGDRVTITCRTSQGIRNDLGWYQQKPGKVPKLLIYAASSLQSGVPSRFSGSGSGTDFTLTISSLQPEDFATYYCLQDYNYPFTFGPGTKVDIK
notes: mouse IgG2 Fc (H2bM prefix)
- binding ratio to unstained cells [8]: 9 fold
- 180 nM hFGFR1c-V5-6His Bind (RU) [3]: 1.4 RU
- IC50, inhibition of 10 nM mfFGF21 [9]: 0.099 nM
- Maximum Inhibition (%) of 10 nM mfFGF21 [9]: 16%
- 180 nM hFGFR1c-V5-6His Bind (RU) [6]: 1.9 RU

Other lines, results leading:

- EC50, SRE-luc activation by ligand [1]: 0.33 nM and 0.37 nM
B1: mouse FGF21 (ligand, UniProt Q9JJN1 29-210, looked up)
chain: AYPIPDSSPLLQFGGQVRQRYLYTDDDQDTEAHLEIREDGTVVGAAHRSPESLLELKALKPGVIQILGVKASRFLCQQPDGALYGSPHFDPEACSFRELLLEDGYNVYQSEAHGLPLRLPQKDSPNQDATSWGPVRFLPMPGLLHEPQDQAGFLPPEPPDVGSSDPLSMVEPLQGRSPSYAS

- 20 nM hKLB-HA-6His Bind (RU) [2]: 86.7 RU
- Kd [2]: 1.3 nM
- koff [2]: 0.000178 s⁻¹
- kon [2]: 137000 M⁻¹ s⁻¹
- t1/2 [2]: 1.08 h
- 180 nM hFGFR1c-V5-6His Bind (RU) [3]: 0.4 RU
- EC50, SRE-luc activation without ligand [4]: 0.28 nM
- IC50, inhibition of 1 nM 6His-hFGF21 [4]: 0.39 nM
- Maximum Activation (%) [4]: 0.5%
- Maximum Inhibition (%) [4]: 90%
- 20 nM hKLB-HA-6His Bind (RU) [5]: 27.3 RU
- Kd [5]: 0.318 nM
- koff [5]: 3.94e-05 s⁻¹
- kon [5]: 124000 M⁻¹ s⁻¹
- t1/2 [5]: 4.89 h
- 180 nM hFGFR1c-V5-6His Bind (RU) [6]: 0.9 RU
- binding result [6]: no binding (tested: 180 nM)
- % Activation [7]: 1.6%
- EC50, SRE-luc activation [7]: > 5 nM
B2: scFv8092N-IgG4mutFc x scFv8900P-IgG4mutFc* Heterodimer (bispecific antibody)
chain 1: not shown
chain 2: QVQLVESGGGVVQPGRSLRLSCVASGFTFSSYGMHWVRQAPGKGLEWVAVISFDGSNKYYADSVKGRFTISRDNSKNTLYLQMNSLRPADTAVYYCAKDRSNYYYFGMDVWGQGTTVTVSSGGGGSGGGGSGGGGSDIVMTQTPLSLPVTPGEPASISCRSSQSLLDSDDGNTYLDWYLQKPGQSPQLLIYTLSYRASGVPDRFSGSGSGTDFTLKISRVEAEDVGVYYCMQRIEFPLTFGGGTKVEIKGGGGSGGGGSGGGGSESKYGPPCPPCPAPEFLGGPSVFLFPPKPKDTLMISRTPEVTCVVVDVSQEDPEVQFNWYVDGVEVHNAKTKPREEQFNSTYRVVSVLTVLHQDWLNGKEYKCKVSNKGLPSSIEKTISKAKGQPREPQVYTLPPSQEEMTKNQVSLTCLVKGFYPSDIAVEWESNGQPENNYKTTPPVLDSDGSFFLYSRLTVDKSRWQEGNVFSCSVMHEALHNRFTQKSLSLSPGK
notes: also called 8900P ScFv-Fc*/8092N ScFv-Fc; H4H8900P ScFv-Fc*/H4H8092N ScFv-Fc

— patent publication US20170174769A1 (Regeneron, published 2017)
